{"source": "the RNAGym collection of RNA variant scans (doi:10.7554/elife.80360)", "parents": {"B1": {"name": "HDV Ribozyme (parent)", "chain": "GGCCGGCAUGGUCCCAGCCUCCUCGCUGGCGCCGGCUGGGCAACAUUCCGAGGGGACCGUCCCCUCGGUAAUGGCGAAUGGGACCCA"}}}
{"variants_of": "B1", "experiment": "self-cleavage, relative activity (ratio to wild type); higher = more cleavage; co-transcriptional"}
{"variant": "C61U C75U", "self-cleavage": 0.254}
{"variant": "C61U C75G", "self-cleavage": 0.151}
{"variant": "C61U C75A", "self-cleavage": 0.201}
{"variant": "C61A U65G", "self-cleavage": 0.92}
{"variant": "C61A U65A", "self-cleavage": 0.774}
{"variant": "C61G G68A", "self-cleavage": 1.02}
{"variant": "C61A G74A", "self-cleavage": 0.561}
{"variant": "C61A G74U", "self-cleavage": 0.63}
{"variant": "C62U C64A", "self-cleavage": 0.845}
{"variant": "C62U C64U", "self-cleavage": 0.796}
{"variant": "C62U C64G", "self-cleavage": 0.482}
{"variant": "U60C C62G", "self-cleavage": 1.07}
{"variant": "U60C C62U", "self-cleavage": 0.997}
{"variant": "C61U A71G", "self-cleavage": 0.997}
{"variant": "C61U A71U", "self-cleavage": 1.02}
{"variant": "C62U G74U", "self-cleavage": 0.679}
{"variant": "U60G G74U", "self-cleavage": 0.665}
{"variant": "C62A A78C", "self-cleavage": 0.101}
{"variant": "C62A A78U", "self-cleavage": 0.185}
{"variant": "C62A A78G", "self-cleavage": 0.78}
{"variant": "C61A G67A", "self-cleavage": 0.9}
{"variant": "C61A G67U", "self-cleavage": 1.12}
{"variant": "C61A G67C", "self-cleavage": 0.831}
{"variant": "C63A A87U", "self-cleavage": 1.03}
{"variant": "C63A A87G", "self-cleavage": 0.946}
{"variant": "C63A A87C", "self-cleavage": 1}
{"variant": "C61G C64A", "self-cleavage": 0.582}
{"variant": "C61G C64G", "self-cleavage": 0.527}
{"variant": "C61A", "self-cleavage": 1.02}
{"variant": "C61G", "self-cleavage": 0.986}
{"variant": "C61U", "self-cleavage": 1.01}
{"variant": "U60C C66A", "self-cleavage": 1.14}
{"variant": "C62A C75A", "self-cleavage": 0.0314}
{"variant": "C62U A78G", "self-cleavage": 0.475}
{"variant": "U60A U79C", "self-cleavage": 0.515}
{"variant": "C62G C85G", "self-cleavage": 0.911}
{"variant": "C62A A87U", "self-cleavage": 0.984}
{"variant": "C62G G67C", "self-cleavage": 0.147}
{"variant": "C62A C63U", "self-cleavage": 0.831}
{"variant": "C62G A70G", "self-cleavage": 0.578}
{"variant": "C62G A70C", "self-cleavage": 0.554}
{"variant": "C63A A78U", "self-cleavage": 0.269}
{"variant": "C63A A78G", "self-cleavage": 0.404}
{"variant": "C62G G73U", "self-cleavage": 0.193}
{"variant": "C62U U69A", "self-cleavage": 1.24}
{"variant": "U60G U79G", "self-cleavage": 0.831}
{"variant": "C61A C75U", "self-cleavage": 0.178}
{"variant": "C61A C75G", "self-cleavage": 0.177}
{"variant": "C61U C85A", "self-cleavage": 1.07}
{"variant": "C61U C85G", "self-cleavage": 0.981}
{"variant": "C61G G81U", "self-cleavage": 0.358}
{"variant": "C61G G73C", "self-cleavage": 0.264}
{"variant": "C61G G73U", "self-cleavage": 0.327}
{"variant": "C61G U69A", "self-cleavage": 0.789}
{"variant": "C61G U69G", "self-cleavage": 0.831}
{"variant": "C62U A87U", "self-cleavage": 1.08}
{"variant": "C62U U72G", "self-cleavage": 0.649}
{"variant": "C62U U72A", "self-cleavage": 0.441}
{"variant": "U60G C64A", "self-cleavage": 1.07}
{"variant": "U60C C85G", "self-cleavage": 0.965}
{"variant": "C61A A71C", "self-cleavage": 1.12}
{"variant": "C61G A78C", "self-cleavage": 0.177}
{"variant": "C61G A78U", "self-cleavage": 0.219}
{"variant": "U60G C62A", "self-cleavage": 0.886}
{"variant": "U60G C62G", "self-cleavage": 0.703}
{"variant": "C63A A77C", "self-cleavage": 0.268}
{"variant": "C63A A77U", "self-cleavage": 0.356}
{"variant": "U60C G82C", "self-cleavage": 0.269}
{"variant": "U60C G82A", "self-cleavage": 0.427}
{"variant": "U60G A83G", "self-cleavage": 0.712}
{"variant": "U60G A83U", "self-cleavage": 0.415}
{"variant": "C61G A70G", "self-cleavage": 0.844}
{"variant": "C62A G73C", "self-cleavage": 0.465}
{"variant": "C62A G73A", "self-cleavage": 0.545}
{"variant": "C61U C66A", "self-cleavage": 0.722}
{"variant": "C62U A77U", "self-cleavage": 0.429}
{"variant": "C62G C66G", "self-cleavage": 0.249}
{"variant": "U60C C64G", "self-cleavage": 0.776}
{"variant": "C61G U65G", "self-cleavage": 0.72}
{"variant": "C62G C84G", "self-cleavage": 0.482}
{"variant": "C62G U65G", "self-cleavage": 0.32}
{"variant": "U60C A70C", "self-cleavage": 1.04}
{"variant": "C62U C66G", "self-cleavage": 0.746}
{"variant": "C62U C66A", "self-cleavage": 0.815}
{"variant": "C61U U69C", "self-cleavage": 0.972}
{"variant": "C61U U69A", "self-cleavage": 0.914}
{"variant": "C62A G74C", "self-cleavage": 0.113}
{"variant": "C61G C86A", "self-cleavage": 1.03}
{"variant": "U60G C86A", "self-cleavage": 1.01}
{"variant": "U60G C86U", "self-cleavage": 0.959}
{"variant": "C62G A87G", "self-cleavage": 0.716}
{"variant": "C63A A71U", "self-cleavage": 1.11}
{"variant": "C63A A71G", "self-cleavage": 0.504}
{"variant": "C61U C84U", "self-cleavage": 0.636}
{"variant": "U60C A83U", "self-cleavage": 0.653}
{"variant": "C63A C66A", "self-cleavage": 0.302}
{"variant": "C63A C66U", "self-cleavage": 0.814}
{"variant": "C63A C66G", "self-cleavage": 0.494}
{"variant": "C61A G73A", "self-cleavage": 0.641}
{"variant": "C61A G73U", "self-cleavage": 0.353}
{"variant": "C61A C66U", "self-cleavage": 1.1}
{"variant": "C61A C66A", "self-cleavage": 0.992}
{"variant": "C61A C66G", "self-cleavage": 0.942}
{"variant": "C61G C66G", "self-cleavage": 0.745}
{"variant": "C61G C66A", "self-cleavage": 0.674}
{"variant": "C61G A77G", "self-cleavage": 0.831}
{"variant": "C61G A77C", "self-cleavage": 0.203}
{"variant": "C62U U65A", "self-cleavage": 1.08}
{"variant": "U60G A87C", "self-cleavage": 0.831}
{"variant": "U60G A87G", "self-cleavage": 0.921}
{"variant": "C62G U72C", "self-cleavage": 0.525}
{"variant": "C62G U72G", "self-cleavage": 0.277}
{"variant": "C62G U72A", "self-cleavage": 0.467}
{"variant": "C61A U79G", "self-cleavage": 1.14}
{"variant": "C61A U79A", "self-cleavage": 0.642}
{"variant": "C61G C75U", "self-cleavage": 0.101}
{"variant": "U60G G82C", "self-cleavage": 0.133}
{"variant": "U60G G82U", "self-cleavage": 0.309}
{"variant": "C62U C85G", "self-cleavage": 0.892}
{"variant": "C62U C85A", "self-cleavage": 0.847}
{"variant": "C62U C85U", "self-cleavage": 0.964}
{"variant": "U60C G67A", "self-cleavage": 0.776}
{"variant": "U60C C86U", "self-cleavage": 0.88}
{"variant": "U60C C86A", "self-cleavage": 0.831}
{"variant": "C61G C63U", "self-cleavage": 1.02}
{"variant": "C61G C63A", "self-cleavage": 0.718}
{"variant": "C61G A83C", "self-cleavage": 0.364}
{"variant": "C61G A83U", "self-cleavage": 0.151}
{"variant": "C62U U79G", "self-cleavage": 0.831}
{"variant": "C62U U79C", "self-cleavage": 0.432}
{"variant": "C62A C64U", "self-cleavage": 0.892}
{"variant": "C62A G76A", "self-cleavage": 1.13}
{"variant": "U60C U69G", "self-cleavage": 0.95}
{"variant": "C63A A83G", "self-cleavage": 0.712}
{"variant": "C61U C63G", "self-cleavage": 0.243}
{"variant": "C61U C63A", "self-cleavage": 0.758}
{"variant": "C62A G81A", "self-cleavage": 0.332}
{"variant": "U60G C66U", "self-cleavage": 1.08}
{"variant": "U60G G68C", "self-cleavage": 0.965}
{"variant": "U60G G68A", "self-cleavage": 1.02}
{"variant": "C62A A77G", "self-cleavage": 1.17}
{"variant": "C62A A77U", "self-cleavage": 0.45}
{"variant": "U60C A78U", "self-cleavage": 0.229}
{"variant": "U60C A78C", "self-cleavage": 0.19}
{"variant": "C61G G82C", "self-cleavage": 0.233}
{"variant": "C61G G82A", "self-cleavage": 0.284}
{"variant": "C61U U65G", "self-cleavage": 0.864}
{"variant": "C61U U65A", "self-cleavage": 0.616}
{"variant": "C62A U72A", "self-cleavage": 0.54}
{"variant": "C62A U72G", "self-cleavage": 0.617}
{"variant": "C62A U72C", "self-cleavage": 0.38}
{"variant": "C61A G68A", "self-cleavage": 1.08}
{"variant": "U60G C75G", "self-cleavage": 0.119}
{"variant": "U60G C75U", "self-cleavage": 0.231}
{"variant": "U60G C75A", "self-cleavage": 0.229}
{"variant": "C61U U72C", "self-cleavage": 0.356}
{"variant": "C61U U72A", "self-cleavage": 0.703}
{"variant": "U60C C84G", "self-cleavage": 0.856}
{"variant": "C61A G82U", "self-cleavage": 0.507}
{"variant": "C62A A70U", "self-cleavage": 0.955}
{"variant": "U60C A77U", "self-cleavage": 0.831}
{"variant": "C62A G82A", "self-cleavage": 0.35}
{"variant": "C61G C62G", "self-cleavage": 1.05}
{"variant": "C62G G81U", "self-cleavage": 0.133}
{"variant": "C62A U65G", "self-cleavage": 0.359}
{"variant": "C61G G74U", "self-cleavage": 0.466}
{"variant": "C62U C63A", "self-cleavage": 0.927}
